Reference: patent US20030199438A1, “Method for identification of proteins from intracellular bacteria” (priority 2001, published 2003)
Entries after “also recorded” stand apart in the source; their conditions may differ.

B1: DT9: C. trachomatis D protein spot identified as CT610 (lower row) (protein)
chain: MNFLDQLDLIIQNKHMLEHTFYVKWSKGELTKEQLQAYAKDYYLHIKAFPKYLSAIHSRCDDLEARKLLLDNLMDEENGYPNHIDLWKQFVFALGVTPEELEAHEPSEAAKAKVATFMRWCTGDSLAAGVAALYSYESQIPRIAREKIRGLTEYFGFSNPEDYAYFTEHEEADVRHAREEKALIEMLLKDDADKVLEASQEVTQSLYGFLDSFLDPGTCCSCHQSY
B2: DT7: C. trachomatis D protein spot identified as CT610 (upper row) (protein)
chain: B1 chain
B3: DT11: C. trachomatis D protein spot identified as CT610 (lower row) (protein)
chain: B1 chain
B4: DT10: C. trachomatis D protein spot identified as CT610 (lower row) (protein)
chain: B1 chain
B5: CT858: C. trachomatis 67 kDa protein, fragments DT4 (C-terminal) and DT48 (N-terminal) (protein)
chain: MKMNRIWLLLLTFSSAIHSPVQGESLVCKNALQDLSFLEHLLQVKYAPKTWKEQYLGWDLVQSSVSAQQKLRTQENPSTSFCQQVLADFIGGLNDFHAGVTFFAIESAYLPYTVQKSSDGRFYFVDIMTFSSEIRVGDELLEVDGAPVQDVLATLYGSNHKGTAAEESAALRTLFSRMASLGHKVPSGRTTLKIRRPFGTTREVRVKWRYVPEGVGDLATIAPSIRAPQLQKSMRSFFPKKDDAFHRSSSLFYSPMVPHFWAELRNHYATSGLKSGYNIGSTDGFLPVIGPVIWESEGLFRAYISSVTDGDGKSHKVGFLRIPTYSWQDMEDFDPSGPPPWEEFAKIIQVFSSNTEALIIDQTNNPGGSVLYLYALLSMLTDRPLELPKHRMILTQDEVVDALDWLTLLENVDTNVESRLALGDNMEGYTVDLQVAEYLKSFGRQVLNCWSKGDIELSTPIPLFGFEKIHPHPRVQYSKPICVLINEQDFSCADFFPVVLKDNDRALIVGTRTAGAGGFVFNVQFPNRTGIKTCSLTGSLAVREHGAFIENIGVEPHIDLPFTANDIRYKGYSEYLDKVKKLVCQLINNDGTIILAEDGSF
B6: DT4: C. trachomatis D protein spot, C-terminal fragment of CT858 (protein)
chain: GYNIGSTDGFLPVIGPVIWESEGLFRAYISSVTDGDGKSHKVGFLRIPTYSWQDMEDFDPSGPPPWEEFAKIIQVFSSNTEALIIDQTNNPGGSVLYLYALLSMLTDRPLELPKHRMILTQDEVVDALDWLTLLENVDTNVESRLALGDNMEGYTVDLQVAEYLKSFGRQVLNCWSKGDIELSTPIPLFGFEKIHPHPRVQYSKPICVLINEQDFSCADFFPVVLKDNDRALIVGTRTAGAGGFVFNVQFPNRTGIKTCSLTGSLAVREHGAFIENIGVEPHIDLPFTANDIRYKGYSEYLDKVKKLVCQLINNDGTIILAEDGSF
B7: DT8: novel 7.2 kDa C. trachomatis specific protein, SEQ ID NO:1, not annotated in genome (protein, listed as Chlamydia trachomatis)
chain: MQHTIMLSLENDNDKLASMMDRVVAASSSILSASKDSESNRQFTISKAPDKEAPCRVSYVAASALSE
B8: DT48: C. trachomatis D protein spot, N-terminal fragment of CT858 (protein)
chain: IHSPVQGESLVCKNALQDLSFLEHLLQVKYAPKTWKEQYLGWDLVQSSVSAQQKLRTQENPSTSFCQQVLADFIGGLNDFHAGVTFFAIESAYLPYTVQKSSDGRFYFVDIMTFSSEIRVGDELLEVDGAPVQDVLATLYGSNHKGTAAEESAALRTLFSRMASLGHKVPSGRTTLKIRRPFGTTREVRVKWRYVPEGVGDLATIAPSIRAPQLQKSM

System: C. trachomatis D infected cell cultures
Experiment: Pulse chase studies of candidates for secreted proteins (2D-PAGE)
Type: cell-based
Details: not given
Procedure: (§1) To label chlamydial proteins for two hour periods, infected cell cultures were incubated in a medium containing RPMI 1640, […] gentamycin, 40 μg/ml cycloheximide, 100 μCi/ml [35S]-methionine/cysteine (Promix, Amersham Pharmacia Biotech, Uppsala, Sweden) as described previously (Shaw et al., 1999,2000) [18.] [19.]. After labelling the labelling medium was changed to normal growth medium following two washes in normal growth medium and the infected cells were harvested at different points in time after labelling. Similarly, labelled EB proteins were obtained by allowing the Chlamydia to grow until 72 h.p.i. after the two hour labelling periods. The labelled EB were then harvested and purified using two consecutive steps of density gradient ultracentrifugation essentially as described for C. trachomatis in (Schacter and Wyrick, 1994) [22.]and for C. pneumoniae (Knudsen et al. 1999 [17.]). Proteins in the EB preparation and pulse chase preparation were labelled at the same intervals as proteins from the whole cell lysate preparation to facilitate correct 2D-PAGE protein profile comparison.
In order to estimate the time in which the identified candidate proteins could be present inside infected cells, the invention provides a series of pulse chase studies. In the following examples infected cell cultures were [35S]-labelled from 22-24 hours. After the labelling period the medium was changed to normal RPMI growth medium without [35S]-methionine and cells were harvested at different times after labelling.

| Molecule | turnover time in pulse chase studies |
| --- | --- |
| B1 | short |
| B2 | short |
| B3 | short |
| B4 | short |
| B5 | long |
| B6 | long |
| B7 | short |
| B8 | long |

Same assay, conditions: labelled 22-24 h.p.i., chased

| Molecule | turnover time (time present after synthesis) |
| --- | --- |
| B7 | < 6 h |

System: host cell proteasome
Experiment: Pulse chase studies in combination with proteasome inhibitors (2D-PAGE)
Type: cell-based, C. trachomatis D infected cells
Set-up: key to Affected by MG115 / Affected by MG132: +: turnover times is prolonged by treatment with different proteasome inhibitors during labelling and chase
Details: labelled 22-24 h.p.i., chased 24-28 h.p.i. with MG132 (10-100 μM; 20 μM in FIG. 6)
Procedure: as §1
Cell permeable proteasome inhibitors are added to the infected cell cultures during the labelling and chase period and the turnover time of proteins compared to that observed for labelling/chase without proteasome inhibitors added. Proteins were labelled in the presence or absence of 10-100 μM of the proteasome inhibitor MG-132 from 22-24 h.p.i. The labelling medium was then replaced with growth medium with or without MG132 after two washes in normal growth medium and chased from 24 h.p.i. to 28 h.p.i. Cell lysates were run on 2D-PAGE(IPG) and compared to controls without MG-132. and to gels with proteins harvested immediately after labelling (FIGS. 6A, B and C).
The invention includes the use of several other proteasome inhibitors (e.g. MG115, MG262, PSI and lactocystein), which inhibit different parts of the catalytic activity of the proteasome, which may elucidate other proteins that are degraded in the proteasome (Table IV).

| Molecule | level on chased+MG132 gels compared to controls |
| --- | --- |
| B1 | significantly greater; also recorded: higher; also recorded: significantly increased |
| B2 | not significantly affected |
| B3 | significantly greater; also recorded: higher; also recorded: significantly increased |
| B4 | significantly greater; also recorded: higher; also recorded: significantly increased |

Same assay, conditions: proteasome inhibitors added during the chase period

| Molecule | turnover time upon addition of proteasome inhibitors |
| --- | --- |
| B1 | prolonged |
| B3 | prolonged |
| B4 | prolonged |

Same assay, conditions: turnover time of C. trachomatis D protein; inhibitor during labelling and chase

| Molecule | Affected by MG115 | Affected by MG132 |
| --- | --- | --- |
| B1 | + | + |
| B3 | + | + |
| B4 | + | + |

System: host cell proteasome
Experiment: Immunoblotting with PAb255 against CT610 of MG132 treated infected cells
Type: cell-based, C. trachomatis D infected cells
Details: MG132 for 6 hours prior to harvesting at 30 h.p.i.
Procedure: In order to confirm that the PAbs recognized the correct vaccine candidates and to visualize potential post translational modifications or processing, 2D-PAGE immunoblotting were performed. 500 μg unlabelled and 2×10^6 cpm labelled C. trachomatis D or C. pneumoniae protein from whole cell lysates was separated by 2D-PAGE, and proteins were electroblotted on to PVDF membranes. Immunostaining was carried out using a 1/5001/1000 dilution of the PAbs in a buffer containing 150 mM NaCl (or in high salt, 400 mM), 20 mM Tris, 0.2% w/v gelatin, 0.05% v/v Tween 20 (Bio-Rad) and 2% v/v normal goat serum (Dako, Glostrup Denmark).
The secondary antibody used was alkaline phosphatase-conjugated goat anti-rabbit IgG (Bio-Rad) diluted 1/2000 in antibody buffer. Blots were stained with 5-bromo-4-chloro-3-indolylphosphate toluidium (BCIP)/nitroblue tetrazolium (NBT) (Bio-Rad) until a clear reaction was detected. Immunoblots were computer scanned and subsequently exposed to X-ray films for approximately 8 days. Melanie II Software was used in order to compare immunostained proteins with their [35S]-labelled counterparts.
DT7 was identified as CT610 and was located just above DT9, DT10, DT11 and DT12 (FIG. 6A). IMB with PAb255 against CT610 on 2D-gel blots (FIG. 7C1) of whole cell lysates clearly reacted with two rows of spots, one row representing DT7 and the other row representing DT9, DT10, DT11 and DT12. CT610 is therefore present in different isoforms presumably due to different posttranslational modification and processing.
IMB with PAb255 was performed on ordinary SDS-PAGE PVDF blots with protein from whole cell lysates treated for six hours in the presence or absence of MG132, respectively.

| Molecule | abundance on 2D-gel immunoblot with PAb255 after MG132 treatment |
| --- | --- |
| B1 | clear relative increase; also recorded: clearly increased |
| B3 | clearly increased |
| B4 | clear relative increase; also recorded: clearly increased |

Same assay, conditions: MG132 for 6 hours prior to harvesting at 30 h.p.i.; listed as DT111

| Molecule | abundance on 2D-gel immunoblot with PAb255 after MG132 treatment |
| --- | --- |
| B3 | clear relative increase |

Same assay, conditions: six hours with or without MG132 (50 μM), harvested 30 h.p.i.

| Molecule | level of band on SDS-PAGE immunoblot with PAb255, MG132 treated vs untreated |
| --- | --- |
| B2 | not significantly altered |
